# T1: Siah1 (construct used for the complex with SIP, limits not stated) (human, UniProt Q8IUQ4 1-282)
# T1 construct: Siah1 (seven-in-absentia homologue 1), human, UniProt Q8IUQ4
# T1 sequence (looked up): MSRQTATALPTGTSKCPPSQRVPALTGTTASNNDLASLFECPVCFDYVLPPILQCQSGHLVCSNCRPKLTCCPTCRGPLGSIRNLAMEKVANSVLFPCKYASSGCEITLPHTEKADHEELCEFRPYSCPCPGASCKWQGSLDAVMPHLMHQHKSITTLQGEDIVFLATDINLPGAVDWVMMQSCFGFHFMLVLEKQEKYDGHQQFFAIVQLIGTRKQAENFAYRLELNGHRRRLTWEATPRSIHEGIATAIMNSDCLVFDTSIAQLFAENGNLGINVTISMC
# How the values were obtained:
# [1] = target: the molecule itself; assay: SEC; size-exclusion chromatography during purification of Siah1 91-282; single species of approximate mass 39 kDa
# [2] = target: T1, Siah1 (construct used for the complex …); assay: SEC; size-exclusion gel chromatography of Siah1 with full-length SIP; complex purified; settings: both partners purified
Binder,stoichiometry N [1],stoichiometry N [2]
"human Siah1 without the RING domain (residues 91-282) (domain or fragment, additional methionine at the N-terminus, a cloning artifact (seen in chain A of the 1.95 A structure); also called seven-in-absentia homologue 1; truncated Siah1; source: E. coli, purified as described previously (Rimsa et al., 2013)) MANSVLFPCKYASSGCEITLPHTEKADHEELCEFRPYSCPCPGASCKWQGSLDAVMPHLMHQHKSITTLQGEDIVFLATDINLPGAVDWVMMQSCFGFHFMLVLEKQEKYDGHQQFFAIVQLIGTRKQAENFAYRLELNGHRRRLTWEATPRSIHEGIATAIMNSDCLVFDTSIAQLFAENGNLGINVTISMC",2,
"full-length human SIP (Siah-interacting protein) (natural protein, UniProt Q9HB71 1-228, looked up) MASEELQKDLEEVKVLLEKATRKRVRDALTAEKSKIETEIKNKMQQKSQKKAELLDNEKPAAVVAPITTGYTVKISNYGWDQSDKFVKIYITLTGVHQVPTENVQVHFTERSFDLLVKNLNGKSYSMIVNNLLKPISVEGSSKKVKTDTVLILCRKKVENTRWDYLTQVEKECKEKEKPSYDTETDPSEGLMNVLKKIYEDGDDDMKRTINKAWVESREKQAKGDTEF",,1
